Laboratory results: PMC4764553 (eLife, 2016)

B1: Full-length hCMV (Towne) IE1 (natural protein)
chain: MESSAKRKMDPDNPDEGPSSKVPRPETPVTKATTFLQTMLRKEVNSQLSLGDPLFPELAEESLKTFERVTEDCNENPEKDVLAELVKQIKVRVDMVRHRIKEHMLKKYTQTEEKFTGAFNMMGGCLQNALDILDKVHEPFEEMKCIGLTMQSMYENYIVPEDKREMWMACIKELHDVSKGAANKLGGALQAKARAKKDELRRKMMYMCYRNIEFFTKNSAFPKTTNGCSQAMAALQNLPQCSPDEIMAYAQKIFKILDEERDKVLTHIDHIFMDILTTCVETMCNEYKVTSDACMMTMYGGISLLSEFCRVLSCYVLEETSVMLAKRPLITKPEVISVMKRRIEEICMKVFAQYILGADPLRVCSPSVDDLRAIAEESDEEEAIVAYTLATRGASSSDSLVSPPESPVPATIPLSSVIVAENSDQEESEQSDEEEEEGAQEEREDTVSVKSEPVSEIEEVAPEEEEDGAEEPTASGGKSTHPMVTRSKADQ

Target: T1, Human nucleosome core particle (human histone octamer with the 147-bp Widom 601 DNA) (human, UniProt P68431 1-136; P62805 1-103; P04908 1-130; P06899 1-126)
T1 construct: also called recombinant human NCP; human NCP
Experiment: ITC
Settings: both partners purified

Binder | fold weaker binding than IE1-CTD alone [fold] | Kd [µM]
B1 | ~5 | –
GGKSTHPMVTRSKADQ [IE1-CTD peptide (chromatin-tethering domain of hCMV IE1, a.a. 476–491)] | – | 0.4
HPMVTRSKADQ [IE1-CTD mutant lacking the N-terminal segment (Δ476–480)] | – | 12
